# Measured values: PMC5589592, “Direct inhibition of STAT signaling by platinum drugs contributes to their anti-cancer activity” (Oncotarget, 2017)
# Square brackets hold non-standard residues; d marks the D form. Ends that are not written are not given here. pY = N[C@@H](Cc1ccc(OP(=O)(O)O)cc1)C(=O)O
# Biological target: T1, recombinant human STAT3, full-length, biotinylated through an N-terminal avi-tag (human, UniProt P40763 1-770, biotin on the avi-tag)
# T1 construct: also called biotinylated STAT; full-length protein; not shown: avi-tag, N-terminal, kept
# Assay: AlphaScreen or HTRF; biotinylated STAT incubated 90 min with (or without) a platinum compound and FITC-pTyr peptide, then streptavidin-coated donor beads and anti-FITC acceptor beads; detection at 570 nm; cisplatin 1, 3, 10 or 30 uM inhibited the signal
# Conditions: both partners purified
# T1 sequence (P40763 whole entry): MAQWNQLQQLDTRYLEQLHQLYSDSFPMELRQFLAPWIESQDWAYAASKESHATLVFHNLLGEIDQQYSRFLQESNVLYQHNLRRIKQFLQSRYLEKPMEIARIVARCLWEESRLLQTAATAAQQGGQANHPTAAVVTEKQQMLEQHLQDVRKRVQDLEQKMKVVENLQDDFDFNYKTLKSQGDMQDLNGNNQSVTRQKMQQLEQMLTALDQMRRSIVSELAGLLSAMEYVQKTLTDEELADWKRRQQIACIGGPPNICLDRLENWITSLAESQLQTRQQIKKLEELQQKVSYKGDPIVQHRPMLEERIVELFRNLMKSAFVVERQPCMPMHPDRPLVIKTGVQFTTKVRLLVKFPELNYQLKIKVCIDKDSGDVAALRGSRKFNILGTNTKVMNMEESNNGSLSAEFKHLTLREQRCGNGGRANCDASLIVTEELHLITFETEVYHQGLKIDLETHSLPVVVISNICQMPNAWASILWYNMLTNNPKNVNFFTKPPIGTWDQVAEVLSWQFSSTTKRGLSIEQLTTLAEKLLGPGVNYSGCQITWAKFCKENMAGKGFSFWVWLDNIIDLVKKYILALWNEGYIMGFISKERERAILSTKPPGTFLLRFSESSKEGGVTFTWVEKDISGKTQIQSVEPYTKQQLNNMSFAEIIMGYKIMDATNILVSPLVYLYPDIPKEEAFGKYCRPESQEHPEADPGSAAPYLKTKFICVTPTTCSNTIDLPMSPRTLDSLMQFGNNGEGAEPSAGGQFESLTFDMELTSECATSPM
binder,measurement,value
"G[pY]LPQTV (not fully specified (N-terminus), pTyr peptide that corresponds with a STAT docking site of the upstream receptor; also called FITC-pTyr peptide; pTyr) [5-carboxyfluorescein (FITC)-GpYLPQTV phospho-tyrosine peptide probe (STAT3)]",binding result,binds
